Laboratory results reported in the supplement of paper PMC9112550, “Optimization of the antimicrobial peptide Bac7 by deep mutational scanning” (BMC Biology, 2022).

system: Escherichia coli TOP10; assay: shrunken log2 fold change of peptide-encoding DNA abundance (4.5 h post-induction vs induction); higher = less antimicrobial activity (less host growth inhibition); conditions: time post-induction: 4.5 h; library: site-saturation at positions 5, 18, 19, 20
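Also: peptides expressed intracellularly from a pBAD plasmid library in pooled LB shake-flask culture, induced with 0.3% L-arabinose, DNA abundance read by NGS, three biological replicates, DESeq2 with apeglm shrinkage.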

| Sequence | shrunken log2 fold change |
| --- | --- |
| RRIRHRPPRLPRPRPRPDDTPRP | -0.00674 |
| RRIRQRPPRLPRPRPRPQDVPRP | -0.0199 |
| RRIRSRPPRLPRPRPRPHPLPRP | -0.00402 |
| RRIRSRPPRLPRPRPRPEFTPRP | 0.171 |
| RRIRHRPPRLPRPRPRPNHYPRP | -0.939 |
| RRIRARPPRLPRPRPRPKEPPRP | 0.991 |
| RRIRNRPPRLPRPRPRPRMEPRP | -0.0307 |
| RRIRPRPPRLPRPRPRPAYCPRP | -0.215 |
| RRIRTRPPRLPRPRPRPGLIPRP | -1.04 |
| RRIRERPPRLPRPRPRPVLYPRP | -0.00668 |
| RRIRNRPPRLPRPRPRPWSLPRP | -0.0288 |
| RRIRQRPPRLPRPRPRPLPFPRP | -0.782 |
| RRIRTRPPRLPRPRPRPHWIPRP | -0.569 |
| RRIRTRPPRLPRPRPRPSIAPRP | -0.281 |
| RRIRRRPPRLPRPRPRPCWRPRP | 0.00446 |
| RRIRRRPPRLPRPRPRPSGRPRP | 0.0215 |
| RRIRFRPPRLPRPRPRPADKPRP | 0.0852 |
| RRIRARPPRLPRPRPRPEPTPRP | 0.832 |
| RRIRYRPPRLPRPRPRPMLSPRP | 0.0215 |
| RRIRWRPPRLPRPRPRPTVQPRP | 0.116 |

| Sequence | shrunken log2 fold change |
| --- | --- |
| RRIRYRPPRLPRPRPRPHDMPRP | -0.00277 |
| RRIRCRPPRLPRPRPRPVYGPRP | -0.747 |
| RRIRYRPPRLPRPRPRPGISPRP | -0.0863 |
| RRIRMRPPRLPRPRPRPEYFPRP | -0.109 |
| RRIRNRPPRLPRPRPRPAEVPRP | -0.144 |
| RRIRRRPPRLPRPRPRPPHLPRP | 0.52 |
| RRIRNRPPRLPRPRPRPNSPPRP | 0.0941 |
| RRIRQRPPRLPRPRPRPMAIPRP | -0.326 |
| RRIRARPPRLPRPRPRPFKDPRP | -0.0208 |
| RRIRTRPPRLPRPRPRPEEPPRP | 0.0165 |
| RRIRRRPPRLPRPRPRPWHFPRP | 0.121 |
| RRIRCRPPRLPRPRPRPMETPRP | -0.0136 |
| RRIRKRPPRLPRPRPRPSMDPRP | 0.0069 |
| RRIRQRPPRLPRPRPRPPQWPRP | 0.525 |
| RRIRVRPPRLPRPRPRPSYAPRP | -0.477 |
| RRIRARPPRLPRPRPRPEGHPRP | 0.223 |
| RRIRERPPRLPRPRPRPTWSPRP | -0.268 |
| RRIRTRPPRLPRPRPRPQLFPRP | -0.112 |
| RRIRVRPPRLPRPRPRPVSDPRP | -0.0859 |
| RRIRIRPPRLPRPRPRPCSQPRP | -0.226 |

| Sequence | shrunken log2 fold change |
| --- | --- |
| RRIRVRPPRLPRPRPRPHLCPRP | -0.137 |
| RRIRDRPPRLPRPRPRPSSSPRP | 0.135 |
| RRIRGRPPRLPRPRPRPSGWPRP | 1.52 |
| RRIRWRPPRLPRPRPRPMIKPRP | -0.353 |
| RRIRVRPPRLPRPRPRPNRQPRP | -0.326 |
| RRIRLRPPRLPRPRPRPEGTPRP | 0.241 |
| RRIRGRPPRLPRPRPRPSVYPRP | 0.286 |
| RRIRNRPPRLPRPRPRPTHRPRP | 0.597 |
| RRIRCRPPRLPRPRPRPYAPPRP | -0.412 |
| RRIRDRPPRLPRPRPRPPTDPRP | 0.564 |
| RRIRFRPPRLPRPRPRPEDGPRP | 0.333 |
| RRIRFRPPRLPRPRPRPAGDPRP | 0.378 |
| RRIRFRPPRLPRPRPRPSYKPRP | -0.819 |
| RRIRPRPPRLPRPRPRPSCRPRP | -0.129 |
| RRIRFRPPRLPRPRPRPSYQPRP | -0.451 |
| RRIRGRPPRLPRPRPRPDERPRP | 0.104 |
| RRIRCRPPRLPRPRPRPEKYPRP | -0.209 |
| RRIRVRPPRLPRPRPRPMDSPRP | -0.134 |
| RRIRGRPPRLPRPRPRPMWGPRP | -0.0435 |
| RRIRTRPPRLPRPRPRPLNWPRP | -0.246 |
